From patent publication US20140302123A1

How the values were obtained:
[1] = molecular target: T1, PTPN4-PDZ (residues G499-N604) (human), P29074; test: NMR titration, 15N-labeled PTPN4-PDZ with unlabeled peptide
T1 chain: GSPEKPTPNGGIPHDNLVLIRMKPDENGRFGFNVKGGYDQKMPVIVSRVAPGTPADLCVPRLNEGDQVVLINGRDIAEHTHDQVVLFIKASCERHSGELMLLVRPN

[2] = molecular target: T1, PTPN4-PDZ (residues G499-N604) (human), …; test: NMR titration (rounded value in the text)

## SWESHKSGGETRL (modifications not checked) [Cyto13-att]
[1]
  Kd: 157 µM
[2]
  Kd: 160 µM
